We go through four molecules from patent publication US8642565B2, “Increase of immune response and targeting by antigens and/or drug linkage” (Wittycell, priority 2007, dated 2014).

Assay [1] relates to SIINFEKL (SEQ ID NO:1) induced CD8+ T cell response; SINFEKL-loaded targets. As to the kind of experiment: VITAL in vivo cytotoxicity assay, intravenous immunization (Example 1). Details: species or system C57BI/6J CD45.2 female mice. Particulars: 1 μg to 100 μg of Ova peptide alone, day 0, read out day 11.
Assay [2] has as its system OVA specific IgG1 antibodies. As to the kind of experiment: Ovalbumin-specific IgG1 antibody titer after immunization (Example 4). Particulars: 1 μg conjugate, intramuscular route, day 0 and day 14, samples 14 days after second immunization; compared with 50 μg of OVA alone (FIG. 4). The assay is classed as in vivo, mice. The procedure: (§1) The aim of this study was to evaluate IgG1 and IgG2a antibody response following immunization with ovalbumin in combination with different adjuvant covalently linked.
(§2) The sera tested were as follows:
(§3) Group 1; 6 mice immunized with 500 μg of ova protein with CFA/IFA (Positive control)
(§4) Group 2: 6 mice immunized with 50 μg of long ova peptide of sequence […] (SEQ ID NO:3; amino acids 316 to 338 of ovalbumin)
(§5) Group 3: 6 mice immunized with 50 μg of short ova peptide of sequence KISQAVHAAHA (SEQ ID NO:4; amino acids 323 to 333 of ovalbumin)
(§6) Group 4: 6 mice immunized with 1 μg PBS-6-OVA
(§7) Group 5: 6 mice immunized with 1 μg PBS-14-OVA
(§8) Group 6: 6 mice immunized with 1 μg PBS-57-OVA
(§9) All mice were immunized by intramuscular route at day 0 and day 14. All samples were collected 14 days following the second immunization and the IgG1 and IgG2a titers specific of ovalbumin were evaluated.

For assay [3], the system named is SIINFEKL-H2K^b specific CD8+ cells. As to the kind of experiment: Detection of SIINFEKL specific CD8+ cells by FACS, H-2 Kb SIINFEKL pentamer and CD8 co-staining (Example 2). The assay is classed as in vivo, C57BI/6J CD45.2 female mice. As to conditions: 1 μg conjugate, intramuscular route, day 0 and 14; compared with mice treated with 50 μg of OVA alone (FIG. 2). From the text: Forty-eight 9 week-old C57BI/6J CD45.2 female mice were used for immunisation. They were split into 9 groups: groups 1 and 2 included 3 animals and groups 3 to 9 included six animals.
The ovalbumin peptide consists in the […] sequence (SEQ ID NO:2) and the glycolipids used are PBS-6, PBS-14 and PBS-57.
The mice were vaccinated by intramuscular route at day 0 and 14 with the following solutions according to the different groups:
Detection of SIINFEKL specific CD8+ cells was monitored by FACS following H-2 Kb SIINFEKL pentamer and CD8 co-staining.
In general terms: A flow cytometer gives signals particle by particle.

Assay [4] deals with OVA specific IgG2a antibodies. As to the kind of experiment: Ovalbumin-specific IgG2a antibody titer after immunization (Example 4). Particulars: 1 μg conjugate, intramuscular route, day 0 and day 14, samples 14 days after second immunization; compared with 50 μg of OVA alone (FIG. 5). Type of assay: in vivo, mice. The protocol:
as §1, §2, §3, §4, §5, §6, §7, §8, §9

Assay [5] relates to SIINFEKL (SEQ ID NO:1) induced CD8+ T cell response. As to the kind of experiment: VITAL in vivo cytotoxicity assay, intramuscular immunization, OVA (Example 3). Details: species or system C57BI/6J CD45.2 female mice. Particulars: 1 μg conjugate, day 0, compared with mice treated with 50 μg of OVA alone (FIG. 3). The protocol: Sixty-nine 9 week-old C57BI/6J CD45.2 female mice were used for immunisation. They were split into 14 groups: groups 1 to 5 included 3 animals, and groups 6 to 14 included 6 animals.
The in vivo cytotoxicity of SIINFEKL (SEQ ID NO:1) induced CD8^+ T cell response was evaluated by VITAL assay as described in Example 1.
The short ovalbumin peptide consists in the SIINFEKL sequence (SEQ ID NO:1; amino acids 257 to 264 of ovalbumin), the long ovalbumin peptide consists in the […] sequence (SEQ ID NO:2; amino acids 250 to 269 of ovalbumin) and the glycolipids used are PBS-6, PBS-14 and PBS-57.
The mice were vaccinated by intramuscular route at day 0 with the following solutions according to the different groups:
The read out was as described in Example 1.

With “Ova peptide: ovalbumine peptide of SIINFEKL sequence (SEQ ID NO:1), amino-acids 257-264 of ovalbumine [reference compound]”, the “antigen-specific lysis (percent specific lysis)” value in assay [1] was “no antigen-specific lysis”.

B1: OVA covalently linked to PBS-6: Examples 2-4: ovalbumin peptide covalently linked to PBS-6 (Example 2 peptide VSGLEQLESIINFEKLTEWTS) (conjugate, UniProt P01012 2-386, looked up)
Ovalbumin: GSIGAASMEFCFDVFKELKVHHANENIFYCPIAIMSALAMVYLGAKDSTRTQINKVVRFDKLPGFGDSIEAQCGTSVNVHSSLRDILNQITKPNDVYSFSLASRLYAEERYPILPEYLQCVKELYRGGLEPINFQTAADQARELINSWVESQTNGIIRNVLQPSSVDSQTAMVLVNAIVFKGLWEKAFKDEDTQAMPFRVTEQESKPVQMMYQIGLFRVASMASEKMKILELPFASGTMSMLVLLPDEVSGLEQLESIINFEKLTEWTSSNVMEERKIKVYLPRMKMEEKYNLTSVLMAMGITDVFSSSANLSGISSAESLKISQAVHAAHAEINEAGREVVGSAEAGVDAASVSEEFRADHPFLFCIKHIATNAVLFFGRCVSP
modifications: covalently linked to glycolipid PBS-6
For B1, the “titer of IgG1 specific of ovalbumin” value in assay [2] is reported as “higher titers”. The “percentage of SIINFEKL-H2K^b specific CD8+ in the blood” value in assay [3] is given as “stronger percentage”. The “titer of IgG2a specific of ovalbumin” value in assay [4] is “higher titers”. Besides, in assay [5], the “percentage of SIINFEKL-specific cytolytic activity in the blood” value is “stronger percentage”.

B2: OVA covalently linked to PBS-57 (conjugate, UniProt P01012 2-386, looked up)
Ovalbumin: GSIGAASMEFCFDVFKELKVHHANENIFYCPIAIMSALAMVYLGAKDSTRTQINKVVRFDKLPGFGDSIEAQCGTSVNVHSSLRDILNQITKPNDVYSFSLASRLYAEERYPILPEYLQCVKELYRGGLEPINFQTAADQARELINSWVESQTNGIIRNVLQPSSVDSQTAMVLVNAIVFKGLWEKAFKDEDTQAMPFRVTEQESKPVQMMYQIGLFRVASMASEKMKILELPFASGTMSMLVLLPDEVSGLEQLESIINFEKLTEWTSSNVMEERKIKVYLPRMKMEEKYNLTSVLMAMGITDVFSSSANLSGISSAESLKISQAVHAAHAEINEAGREVVGSAEAGVDAASVSEEFRADHPFLFCIKHIATNAVLFFGRCVSP
modifications: covalently linked to glycolipid PBS-57
For the molecule B2, the “titer of IgG1 specific of ovalbumin” value in assay [2] is “higher titers”. Further, the “percentage of SIINFEKL-H2K^b specific CD8+ in the blood” value in assay [3] is “stronger percentage”. Also, the “titer of IgG2a specific of ovalbumin” value in assay [4] was “higher titers”. The “percentage of SIINFEKL-specific cytolytic activity in the blood” value in assay [5] was “stronger percentage”.

B3: OVA covalently linked to PBS-14 (conjugate, UniProt P01012 2-386, looked up)
Ovalbumin: GSIGAASMEFCFDVFKELKVHHANENIFYCPIAIMSALAMVYLGAKDSTRTQINKVVRFDKLPGFGDSIEAQCGTSVNVHSSLRDILNQITKPNDVYSFSLASRLYAEERYPILPEYLQCVKELYRGGLEPINFQTAADQARELINSWVESQTNGIIRNVLQPSSVDSQTAMVLVNAIVFKGLWEKAFKDEDTQAMPFRVTEQESKPVQMMYQIGLFRVASMASEKMKILELPFASGTMSMLVLLPDEVSGLEQLESIINFEKLTEWTSSNVMEERKIKVYLPRMKMEEKYNLTSVLMAMGITDVFSSSANLSGISSAESLKISQAVHAAHAEINEAGREVVGSAEAGVDAASVSEEFRADHPFLFCIKHIATNAVLFFGRCVSP
modifications: covalently linked to glycolipid PBS-14
Consider B3, for which the “titer of IgG1 specific of ovalbumin” value in assay [2] was “higher titers”. In addition, in assay [3], the “percentage of SIINFEKL-H2K^b specific CD8+ in the blood” value is “stronger percentage”. The “titer of IgG2a specific of ovalbumin” value in assay [4] is “higher titers”. The “percentage of SIINFEKL-specific cytolytic activity in the blood” value in assay [5] is “stronger percentage”.
